These results are taken from patent US20080146500A1, “Selective Vpac2 Receptor Peptide Agonists” (priority 2004, published 2008).

Read-outs that look alike come from different tables or passages of the source. Ends that are not written are not given here. A value given as a limit tells only on which side of the number the result lay.

A short description of series [1]: Rat serum stability at 37 C, remaining active peptide estimated by EC50,4C/EC50,37C in CHO-VPAC2 cAMP assay. The note with it: for Estimated serum stability (%): after 24 h in rat serum at 37 C. Here is the method: The rat serum is stored at 4° C. until use and is used within two weeks.
On Day 0, two 100 μL aliquots of 10 μM peptide in rat serum are prepared by adding 10 μL peptide stock to 90 μL rat serum for each aliquot. 250 kIU aprotinin/mL is added to one of these aliquots. The aliquot is stored with aprotinin at 4° C. The aliquot is stored without aprotinin at 37° C. The aliquots are incubated for […].
On Day 1, after incubation of the aliquots prepared on day 0 for 24 hours, an incubation buffer containing PBS+1.3 mM CaCl2, 1.2 mM MgCl2, 2 mM glucose, and 0.25 mM IBMX is prepared. A plate with 11 serial 5× dilutions of peptide for the 4° C. and 37° C. aliquot is prepared for each peptide studied. […] The plate(s) are washed with cells twice in incubation buffer. The plates are allowed to hold 50 μL incubation media per well for 15 minutes. 50 μL solution per well is transferred to the cells from the plate prepared with 11 serial 5× dilutions of peptide for the 4° C. and 37° C. aliquot for each peptide studied, using the maximal concentrations that are indicated by the primary screen, in duplicate. This step dilutes the peptide concentration by a factor of two. The cells are incubated at room temperature for 30 minutes. The supernatant is removed. 40 μL/well of the DiscoveRx antibody/extraction buffer is added. The cells are incubated on the shaker (300 rpm) for 1 hour. Normal procedure with the DiscoveRx kit is followed. cAMP standards are included in column 12. EC50 values are determined from the cAMP assay data.

Series [2] concerns the target T1, human VPAC1 (Homo sapiens, UniProt P32241).
T1 construct: expressed in transfected cells
T1 sequence (P32241 31-457): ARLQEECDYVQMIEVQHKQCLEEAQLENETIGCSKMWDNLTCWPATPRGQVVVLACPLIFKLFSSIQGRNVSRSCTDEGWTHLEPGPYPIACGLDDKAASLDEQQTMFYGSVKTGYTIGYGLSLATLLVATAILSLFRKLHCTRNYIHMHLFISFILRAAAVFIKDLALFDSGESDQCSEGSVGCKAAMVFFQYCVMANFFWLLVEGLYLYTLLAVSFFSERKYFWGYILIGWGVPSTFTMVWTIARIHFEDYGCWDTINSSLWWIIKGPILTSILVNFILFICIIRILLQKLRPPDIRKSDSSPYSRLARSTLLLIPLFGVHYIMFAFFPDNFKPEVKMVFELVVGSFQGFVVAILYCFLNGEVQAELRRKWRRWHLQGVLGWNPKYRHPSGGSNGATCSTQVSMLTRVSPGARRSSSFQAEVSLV
Nature of the series: Filter binding assay, membranes from cells transiently transfected with human VPAC1, 125I-labeled VIP tracer. The conditions noted are these: read-out: Human receptor binding (IC50; nM) VPAC1. On the procedure: For this assay, the solutions and equipment include:
Presoak solution: 0.5% Polyethyleneamine in Aqua dest.
Buffer for flushing filter plates: 25 mM HEPES pH 7.4
Blocking buffer: 25 mM HEPES pH 7.4; 0.2% protease free BSA
Assay buffer: 25 mM HEPES pH 7.4; 0.5% protease free BSA
Dilution and assay plate: PS-Microplate, U form
Filtration Plate Multiscreen FB Opaque Plate; […] Type B Glasfiber filter
In order to prepare the filter plates, the presoak solution is aspirated by vacuum filtration. The plates are flushed twice with 200 μL flush buffer. 200 μL blocking buffer is added to the filter plate. The filter plate is then incubated with 200 μL presoak solution for 1 hour at room temperature.
The assay plate is filled with […] (2.5 μg) suspended in assay buffer, 25 μL compound (agonist) in assay buffer, and 25 μL tracer (about 40000 cpm) in assay buffer. The filled plate is incubated for 1 hour with shaking.
The transfer from assay plate to filter plate is conducted. The blocking buffer is aspirated by vacuum filtration and washed two times with flush buffer. 90 μL is transferred from the assay plate to the filter plate. The 90 μL transferred from assay plate is aspirated and washed three times with 200 μL flush buffer. The plastic support is removed. It is dried for 1 hour at 60° C. 30 μL Microscint is added. The count is performed.
Values reported are single results or the mean of two or more independent runs.

The target of series [3] is T2, rat VPAC2 receptor (Rattus norvegicus, UniProt P35000).
T2 construct: expressed in transfected cells; host or cells: CHO-PO cells, transient
T2 sequence (P35000 23-437): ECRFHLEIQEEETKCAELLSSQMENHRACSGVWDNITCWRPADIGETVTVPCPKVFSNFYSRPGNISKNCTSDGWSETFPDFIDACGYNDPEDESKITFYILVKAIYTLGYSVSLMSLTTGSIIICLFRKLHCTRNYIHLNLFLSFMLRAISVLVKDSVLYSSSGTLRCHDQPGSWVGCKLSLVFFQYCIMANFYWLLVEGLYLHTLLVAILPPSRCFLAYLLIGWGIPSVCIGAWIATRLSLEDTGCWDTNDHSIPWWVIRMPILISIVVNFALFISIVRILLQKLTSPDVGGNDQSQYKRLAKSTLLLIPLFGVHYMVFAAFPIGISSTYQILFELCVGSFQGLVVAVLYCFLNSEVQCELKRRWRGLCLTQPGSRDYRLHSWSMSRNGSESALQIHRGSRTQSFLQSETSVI
In words: Rat VPAC2 in vitro potency (cAMP generation, DiscoveRx) in transiently transfected CHO-PO cells. The conditions noted are these: CHO-PO cells transiently transfected with rat VPAC2; read-out: rVPAC2 in vitro potency (cAMP generation) EC50. It counts as cell-based. On the procedure: Rat receptor selectivity is estimated by comparing functional potency (cAMP generation) in CHO-PO cells transiently expressing rat VPAC1 or rat VPAC2 receptors. CHO-PO cells transiently expressing rat VPAC1 or VPAC2, are seeded with 10,000 cells/well three days before the assay. The cells are kept in 200 μL culture medium. […] The stimuli are present for 30 minutes. The assay buffer is then gently removed.

[4] abbreviates: values >100% may represent release of intact peptide from the PEG conjugate.

For the substance “P137: PEGylated material obtained from P120 and methoxy-PEG2-MAL-40K (HSDAVFTDNYTRLRKQVAAKKYLQSIKNKRYGGPSSGAPPPC; also: PEGylated with methoxy-PEG2-MAL-40K, site not given here) [Agonist P137]”, the “Estimated 72 h stability (%)” value in series [1] is 52.8%. The half-maximal inhibitory concentration (IC50) in series [2] was found to be 853 nM. In series [3], the EC50 came out at 8 nM.
For the substance “C6-HSDAVFTDNYTOrnLRAibQVAAAibKYLQC(PEG40K)IOrnNOrnGGPSSGAPPPS (HSDAVFTDNYTXLRXQVAAXKYLQCIXNXGGPSSGAPPPS; non-natural residues) [Agonist P373]”, the “Estimated serum stability (%)” value in series [1] (setting [4]) was 73.6%. Besides, in series [1] (after 72 h in rat serum at 37 C, values >100% may represent release of intact peptide from the PEG conjugate), the “Estimated 72 h stability (%)” value is 47.1%. Also, the IC50 in series [2] was greater than 25000 nM. In addition, the EC50 in series [3] was determined as 72.2 nM.
On to “C6-HDAVFTEQY(OMe)TOrnLRAibQVAAAibOrnYLQSIOrnOrnGGPSSGAPPPC(PEG60K)-NH2 [Agonist P404]”, for which the “Estimated serum stability (%)” value in series [1] (setting [4]) is reported as 320.7%. In series [2], the IC50 was greater than 3000 nM. The EC50 in series [3] amounted to 24.4 nM.
The matching figures for “C6-HSDAVFTEQY(OMe)TOrnLRAibQVAK(CO(CH2)2SPEG40K)AibOrnYLQSIOrnOrnGGPSSGAPPPS-NH2 (HSDAVFTEQYTXLRXQVAXXXYLQSIXXGGPSSGAPPPS; non-natural residues) [Agonist P432]”: 102.1%, greater than 3000 nM and 16.7 nM.

For orientation: IC50 means the concentration that inhibits the measured activity by half.
